In publication PMC9482650, “Quantitative fragmentomics allow affinity mapping of interactomes” (Nature Communications, 2022):

T1: HTRA4, P83105
T1 sequence (P83105 378-476, limits assumed, looked up): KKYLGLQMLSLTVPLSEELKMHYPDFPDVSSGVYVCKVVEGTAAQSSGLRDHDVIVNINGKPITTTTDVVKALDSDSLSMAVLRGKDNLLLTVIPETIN

T2: ARHGAP21, Q5T5U3
T2 sequence (Q5T5U3 45-169, limits assumed, looked up): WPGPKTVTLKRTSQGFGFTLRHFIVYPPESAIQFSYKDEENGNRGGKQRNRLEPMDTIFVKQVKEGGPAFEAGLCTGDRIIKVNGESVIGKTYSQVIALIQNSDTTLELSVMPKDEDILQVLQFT

T3: SNTB1, Q13884
T3 sequence (Q13884 107-205, limits assumed, looked up): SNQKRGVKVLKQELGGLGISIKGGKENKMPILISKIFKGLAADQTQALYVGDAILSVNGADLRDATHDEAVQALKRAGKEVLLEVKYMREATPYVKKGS

T4: LIN7B, Q9HAP6
T4 sequence (Q9HAP6 88-185, limits assumed, looked up): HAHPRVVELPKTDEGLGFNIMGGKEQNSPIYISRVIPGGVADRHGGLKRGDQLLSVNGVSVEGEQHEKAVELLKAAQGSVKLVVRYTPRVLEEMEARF

T5: SNTG2, Q9NY99
T5 sequence (Q9NY99 68-166, limits assumed, looked up): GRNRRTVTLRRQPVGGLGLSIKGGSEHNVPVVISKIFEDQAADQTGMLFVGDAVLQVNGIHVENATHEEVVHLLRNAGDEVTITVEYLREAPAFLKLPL

T6: PDZD2_2, O15018
T6 sequence (O15018 329-429, limits assumed, looked up): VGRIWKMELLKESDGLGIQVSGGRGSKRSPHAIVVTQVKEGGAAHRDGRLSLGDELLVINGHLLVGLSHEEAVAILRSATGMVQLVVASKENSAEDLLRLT

T7: LNX2_3, Q8N448
T7 sequence (Q8N448 463-564, limits assumed, looked up): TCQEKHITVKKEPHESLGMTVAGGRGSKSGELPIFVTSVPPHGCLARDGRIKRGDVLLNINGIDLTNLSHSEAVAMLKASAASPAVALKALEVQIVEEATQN

T8: GRIP1_4, Q9Y3R0
T8 sequence (Q9Y3R0 467-571, limits assumed, looked up): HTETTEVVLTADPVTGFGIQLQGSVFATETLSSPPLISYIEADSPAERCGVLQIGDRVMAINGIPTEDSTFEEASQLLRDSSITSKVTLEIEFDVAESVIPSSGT

T9: APBA2_2, Q99767
T9 sequence (Q99767 654-744, limits assumed, looked up): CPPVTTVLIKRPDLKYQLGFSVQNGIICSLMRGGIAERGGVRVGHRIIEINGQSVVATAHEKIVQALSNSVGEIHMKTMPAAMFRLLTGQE

T10: NHERF3_4, Q5T2W1
T10 sequence (Q5T2W1 373-468, limits assumed, looked up): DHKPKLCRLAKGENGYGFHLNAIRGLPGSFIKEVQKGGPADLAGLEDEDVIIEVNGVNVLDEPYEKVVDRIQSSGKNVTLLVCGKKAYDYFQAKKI

T11: PDZRN3_1, Q9UPQ7
T11 sequence (Q9UPQ7 244-349, limits assumed, looked up): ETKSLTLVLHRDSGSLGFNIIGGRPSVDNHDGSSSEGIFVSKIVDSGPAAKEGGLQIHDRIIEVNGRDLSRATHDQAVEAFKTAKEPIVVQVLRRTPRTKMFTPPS

T12: LIN7C, Q9NUP9
T12 sequence (Q9NUP9 88-185, limits assumed, looked up): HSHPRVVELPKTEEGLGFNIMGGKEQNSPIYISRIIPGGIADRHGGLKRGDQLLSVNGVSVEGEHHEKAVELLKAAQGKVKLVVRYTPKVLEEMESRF


Experiments:
Test in all cases: holdup assay
Set-up in all cases: key: below the threshold = too weak to quantify, mostly under pKd 3.1 to 4
Details in all cases: plain residues with an end cap or a label only (N-terminal biotin on a linker: ado-ado)
HTRA4, P83105 = biological target: T1, HTRA4, P83105
DLG4_3, P78352 = biological target: DLG4_3, P78352
ARHGAP21, Q5T5U3 = biological target: T2, ARHGAP21, Q5T5U3
Inadl_3, Q8NI35 = biological target: Inadl_3, Q8NI35
TJP1_3, Q07157 = biological target: TJP1_3, Q07157
SNTB1, Q13884 = biological target: T3, SNTB1, Q13884
LNX1_3, Q8TBB1 = biological target: LNX1_3, Q8TBB1
LIN7B, Q9HAP6 = biological target: T4, LIN7B, Q9HAP6
SNTG2, Q9NY99 = biological target: T5, SNTG2, Q9NY99
LAP2, Q96RT1 = biological target: LAP2, Q96RT1
PDZD2_2, O15018 = biological target: T6, PDZD2_2, O15018
LNX2_3, Q8N448 = biological target: T7, LNX2_3, Q8N448
MAGI2_4, Q86UL8 = biological target: MAGI2_4, Q86UL8
GRIP1_4, Q9Y3R0 = biological target: T8, GRIP1_4, Q9Y3R0
APBA2_2, Q99767 = biological target: T9, APBA2_2, Q99767
LNX1_2, Q8TBB1 = biological target: LNX1_2, Q8TBB1
NHERF3_4, Q5T2W1 = biological target: T10, NHERF3_4, Q5T2W1
Inadl_6, Q8NI35 = biological target: Inadl_6, Q8NI35
DLG1_3, Q12959 = biological target: DLG1_3, Q12959
SCRIB_2, Q14160 = biological target: SCRIB_2, Q14160
DLG1_2, Q12959 = biological target: DLG1_2, Q12959
FRMPD2_1, Q68DX3 = biological target: FRMPD2_1, Q68DX3
PDZRN3_1, Q9UPQ7 = biological target: T11, PDZRN3_1, Q9UPQ7
IL16_4, Q14005 = biological target: IL16_4, Q14005
LIN7C, Q9NUP9 = biological target: T12, LIN7C, Q9NUP9

Sequence of DLG4_3, P78352 (P78352 306-403): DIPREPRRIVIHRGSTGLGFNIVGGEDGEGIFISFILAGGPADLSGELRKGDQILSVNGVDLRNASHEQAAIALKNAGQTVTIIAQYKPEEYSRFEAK
Sequence of SCRIB_2, Q14160 (Q14160 857-960): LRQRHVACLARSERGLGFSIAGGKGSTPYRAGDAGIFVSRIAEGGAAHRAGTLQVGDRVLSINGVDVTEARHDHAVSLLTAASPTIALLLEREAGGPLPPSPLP
Sequence of MAGI2_4, Q86UL8 (Q86UL8 772-865): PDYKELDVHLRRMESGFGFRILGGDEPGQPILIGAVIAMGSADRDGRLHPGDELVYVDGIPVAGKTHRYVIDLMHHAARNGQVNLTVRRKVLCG
Sequence of DLG1_3, Q12959 (Q12959 457-571): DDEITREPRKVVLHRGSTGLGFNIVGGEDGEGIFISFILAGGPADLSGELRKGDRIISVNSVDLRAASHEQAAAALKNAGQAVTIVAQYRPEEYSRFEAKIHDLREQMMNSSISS
Sequence of LNX1_2, Q8TBB1 (Q8TBB1 371-470): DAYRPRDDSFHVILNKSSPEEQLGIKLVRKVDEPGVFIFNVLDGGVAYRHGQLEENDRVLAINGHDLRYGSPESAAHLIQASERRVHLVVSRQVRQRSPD
Sequence of FRMPD2_1, Q68DX3 (Q68DX3 770-861): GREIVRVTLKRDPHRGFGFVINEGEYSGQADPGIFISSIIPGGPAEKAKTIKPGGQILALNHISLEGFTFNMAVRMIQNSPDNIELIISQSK
Sequence of Inadl_6, Q8NI35 (Q8NI35 1058-1167): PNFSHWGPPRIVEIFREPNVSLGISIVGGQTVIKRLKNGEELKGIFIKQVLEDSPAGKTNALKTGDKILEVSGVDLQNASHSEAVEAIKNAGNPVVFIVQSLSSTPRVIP
Sequence of DLG1_2, Q12959 (Q12959 314-412): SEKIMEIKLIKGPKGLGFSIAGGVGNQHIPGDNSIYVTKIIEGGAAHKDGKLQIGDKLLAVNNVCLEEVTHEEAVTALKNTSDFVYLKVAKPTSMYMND
Sequence of Inadl_3, Q8NI35 (Q8NI35 359-469): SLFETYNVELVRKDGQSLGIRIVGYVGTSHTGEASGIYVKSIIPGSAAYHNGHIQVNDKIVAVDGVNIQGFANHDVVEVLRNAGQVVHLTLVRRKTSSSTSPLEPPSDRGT
Sequence of LAP2, Q96RT1 (Q96RT1 other isoform, or with tags, fused parts or gaps): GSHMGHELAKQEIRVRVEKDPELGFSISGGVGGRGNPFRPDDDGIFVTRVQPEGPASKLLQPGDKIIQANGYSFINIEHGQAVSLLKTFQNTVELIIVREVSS
Sequence of IL16_4, Q14005 (Q14005 1229-1329): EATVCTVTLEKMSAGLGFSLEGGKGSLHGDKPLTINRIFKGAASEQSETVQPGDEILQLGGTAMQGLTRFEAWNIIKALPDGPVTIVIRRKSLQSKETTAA
Sequence of TJP1_3, Q07157 (Q07157 416-512): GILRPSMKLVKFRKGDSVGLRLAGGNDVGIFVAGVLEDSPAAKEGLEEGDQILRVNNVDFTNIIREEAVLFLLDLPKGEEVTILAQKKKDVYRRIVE
Sequence of LNX1_3, Q8TBB1 (Q8TBB1 500-596): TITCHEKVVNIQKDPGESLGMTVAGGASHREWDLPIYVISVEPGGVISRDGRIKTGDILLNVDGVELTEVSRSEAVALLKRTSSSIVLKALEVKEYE

| Binder | pKd (HTRA4, P83105) | pKd (DLG4_3, P78352) | pKd (ARHGAP21, Q5T5U3) | pKd (Inadl_3, Q8NI35) | pKd (TJP1_3, Q07157) | pKd (SNTB1, Q13884) | pKd (LNX1_3, Q8TBB1) | pKd (LIN7B, Q9HAP6) | pKd (SNTG2, Q9NY99) | pKd (LAP2, Q96RT1) | pKd (PDZD2_2, O15018) | pKd (LNX2_3, Q8N448) | pKd (MAGI2_4, Q86UL8) | pKd (GRIP1_4, Q9Y3R0) | pKd (APBA2_2, Q99767) | pKd (LNX1_2, Q8TBB1) | pKd (NHERF3_4, Q5T2W1) | pKd (Inadl_6, Q8NI35) | pKd (DLG1_3, Q12959) | pKd (SCRIB_2, Q14160) | other results |
| --- | --- | --- | --- | --- | --- | --- | --- | --- | --- | --- | --- | --- | --- | --- | --- | --- | --- | --- | --- | --- | --- |
| QSARLWETSI [ADAM22, Q9P0K1] | 3.61 | 4.23 | below the threshold | 4.92 | below the threshold | 4.69 | below the threshold | 4.35 | 4.86 | 3.96 | 4.46 | below the threshold | below the threshold | below the threshold | below the threshold | below the threshold | below the threshold | 4.06 | 4.66 | 4.71 | pKd (DLG1_2, Q12959): 4.47; pKd (FRMPD2_1, Q68DX3): below the threshold; pKd (PDZRN3_1, Q9UPQ7): 4.87; pKd (IL16_4, Q14005): 3.47; pKd (LIN7C, Q9NUP9): 4.5 |
| SAAKVLTSMC [GHRHR, Q02643] | below the threshold | below the threshold | below the threshold | below the threshold | below the threshold | 3.53 | below the threshold | 3.7 | below the threshold | below the threshold | 4.75 | below the threshold | below the threshold | below the threshold | below the threshold | below the threshold | 4 | below the threshold | 3.6 | below the threshold | pKd (DLG1_2, Q12959): below the threshold; pKd (FRMPD2_1, Q68DX3): below the threshold; pKd (PDZRN3_1, Q9UPQ7): below the threshold; pKd (IL16_4, Q14005): below the threshold; pKd (LIN7C, Q9NUP9): below the threshold |
| MLSKQSESAI [FLVCR1, Q9Y5Y0] | 3.91 | below the threshold | 4.1 | below the threshold | below the threshold | 3.68 | below the threshold | below the threshold | 3.81 | below the threshold | 4.46 | below the threshold | 3.54 | below the threshold | below the threshold | below the threshold | below the threshold | below the threshold | 3.77 | 3.55 | pKd (DLG1_2, Q12959): 3.82; pKd (FRMPD2_1, Q68DX3): below the threshold; pKd (PDZRN3_1, Q9UPQ7): 3.78; pKd (IL16_4, Q14005): below the threshold; pKd (LIN7C, Q9NUP9): below the threshold |
| TASPAKETSF [SLC2A7, Q6PXP3] | below the threshold | below the threshold | below the threshold | below the threshold | below the threshold | 3.53 | below the threshold | 4.5 | below the threshold | below the threshold | below the threshold | below the threshold | 3.52 | below the threshold | below the threshold | below the threshold | below the threshold | below the threshold | below the threshold | 4.12 | pKd (DLG1_2, Q12959): 4.5; pKd (FRMPD2_1, Q68DX3): below the threshold; pKd (PDZRN3_1, Q9UPQ7): below the threshold; pKd (IL16_4, Q14005): below the threshold; pKd (LIN7C, Q9NUP9): 4.36 |
